Reference: publication PMC7496933, “TIM‐3 and CEACAM1 do not interact in cis and in trans” (European Journal of Immunology, 2020)

Biological target: T1, recombinant human CEACAM1 expressed in the murine myeloma cell line NSO (human, UniProt P13688 35-428)
T1 construct: human CEACAM1, recombinant; also called immobilized CEACAM1; CD66a; source: bought: R&D systems (expressed in NSO cells)
T1 sequence (looked up): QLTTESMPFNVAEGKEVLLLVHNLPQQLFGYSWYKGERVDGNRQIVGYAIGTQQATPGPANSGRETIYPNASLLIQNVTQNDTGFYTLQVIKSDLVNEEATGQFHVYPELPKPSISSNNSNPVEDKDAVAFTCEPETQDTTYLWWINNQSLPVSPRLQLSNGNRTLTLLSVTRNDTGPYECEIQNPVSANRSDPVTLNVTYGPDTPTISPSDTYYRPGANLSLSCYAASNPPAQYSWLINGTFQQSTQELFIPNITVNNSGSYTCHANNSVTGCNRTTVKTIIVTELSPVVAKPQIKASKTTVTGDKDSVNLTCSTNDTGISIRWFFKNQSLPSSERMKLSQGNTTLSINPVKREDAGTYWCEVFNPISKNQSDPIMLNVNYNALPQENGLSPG
Experiment: ELISA; Gal‐9 or CEACAM1 immobilized overnight at 4°C on Maxisorp plates (coating 0.5 μg/mL); Ig fusion proteins added in PBS‐0.5% BSA, 1 h at room temperature; detected with HRP‐labeled goat‐anti‐human IgG (Fc‐specific), ABTS, OD 405 nm
Details: both partners purified

B1: fusion protein representing the extracellular domain of CEACAM1 (CEACAM1‐Ig) (Fc fusion, human, UniProt P13688 35-428, looked up)
chain: QLTTESMPFNVAEGKEVLLLVHNLPQQLFGYSWYKGERVDGNRQIVGYAIGTQQATPGPANSGRETIYPNASLLIQNVTQNDTGFYTLQVIKSDLVNEEATGQFHVYPELPKPSISSNNSNPVEDKDAVAFTCEPETQDTTYLWWINNQSLPVSPRLQLSNGNRTLTLLSVTRNDTGPYECEIQNPVSANRSDPVTLNVTYGPDTPTISPSDTYYRPGANLSLSCYAASNPPAQYSWLINGTFQQSTQELFIPNITVNNSGSYTCHANNSVTGCNRTTVKTIIVTELSPVVAKPQIKASKTTVTGDKDSVNLTCSTNDTGISIRWFFKNQSLPSSERMKLSQGNTTLSINPVKREDAGTYWCEVFNPISKNQSDPIMLNVNYNALPQENGLSPG
notes: CEACAM1 (CD66a), extracellular domain; also called CEACAM1 Ig fusion protein; source: bought: SinoBiological
B1: binds.
